In publication PMC3728543, “Structure-Based Mechanism for Early PLP-Mediated Steps of Rabbit Cytosolic Serine Hydroxymethyltransferase Reaction” (BioMed Research International, 2013):
Numbering of substitutions follows the chain as printed. Names and notes keep the numbering of the source.

B1: rabbit cytosolic serine hydroxymethyltransferase, wild type (enzyme, UniProt P07511 1-484, looked up)
chain: MATAVNGAPRDAALWSSHEQMLAQPLKDSDAEVYDIIKKESNRQRVGLELIASENFASRAVLEALGSCLNNKYSEGYPGQRYYGGTEHIDELETLCQKRALQAYGLDPQCWGVNVQPYSGSPANFAVYTALVEPHGRIMGLDLPDGGHLTHGFMTDKKKISATSIFFESMAYKVNPDTGYIDYDRLEENARLFHPKLIIAGTSCYSRNLDYGRLRKIADENGAYLMADMAHISGLVVAGVVPSPFEHCHVVTTTTHKTLRGCRAGMIFYRRGVRSVDPKTGKEILYNLESLINSAVFPGLQGGPHNHAIAGVAVALKQAMTPEFKEYQRQVVANCRALSAALVELGYKIVTGGSDNHLILVDLRSKGTDGGRAEKVLEACSIACNKNTCPGDKSALRPSGLRLGTPALTSRGLLEKDFQKVAHFIHRGIELTVQIQDDTGPRATLKEFKEKLAGDEKHQRAVRALRQEVESFAALFPLPGLPGF
modifications: pyridoxal 5'-phosphate bound as internal aldimine to the epsilon-amino group of Lys257
notes: rabbit cytosolic serine hydroxymethyltransferase (rcSHMT, EC 2.1.2.1); cDNA in the pET22b vector; the wild type probably came the same way; also called rcSHMT; wild type rcSHMT
B2: rabbit cytosolic serine hydroxymethyltransferase T254A mutant (enzyme, UniProt P07511 1-484, looked up)
chain: B1 chain with T254A
modifications: pyridoxal 5'-phosphate bound to Lys257 (internal aldimine; gem-diamine with glycine or L-serine)
notes: rabbit cytosolic serine hydroxymethyltransferase (rcSHMT) with T254A; cDNA in the pET22b vector; numbering is that for rcSHMT; also called T254A rcSHMT
B3: rabbit cytosolic serine hydroxymethyltransferase T254C mutant (enzyme, UniProt P07511 1-484, looked up)
chain: B1 chain with T254C
modifications: pyridoxal 5'-phosphate bound to Lys257 (internal aldimine; gem-diamine with glycine or L-serine)
notes: rabbit cytosolic serine hydroxymethyltransferase (rcSHMT) with T254C; cDNA in the pET22b vector; numbering is that for rcSHMT; also called T254C rcSHMT

Target: the molecule itself
Experiment: crystal structure; crystals from 2-3% PEG4000, 20 mM K2HPO4/KH2PO4, 50 mM potassium MES or sodium HEPES pH 7.0, room temperature, protein 50 mg/mL; unliganded or with 60 mM glycine or L-serine; space group P41 with a tetramer per asymmetric unit (T254C-glycine: P41212, a dimer per asymmetric unit)

**Q.** For B1, which “stoichiometry N” value is on record?
**A.** 4

**Q.** B2 was tested. Which “stoichiometry N” value did it give?
**A.** 4

**Q.** Which “stoichiometry N” value does the source give for B3 here?
**A.** 4
